Results from patent US20130086703.

Tested on: full-length human Keratin 6

In the case of Kgp, the “enzymatic degradation products detected by mass spectrometry (on spot profiling)” value is reported as “peptides consisting of the amino acid sequences shown by SEQ ID NOs: 4 and 5 (peptides 6 and 7) were newly identified as Kgp degradation products of human Keratin 6”.
